Numbering of substitutions follows the chain as printed. In names and notes the source's numbering stands. Entries after “also recorded” stand apart in the source; their conditions may differ.
B1: talin R8 K1530E: GST-tagged talin R8 single mutant K1530E (protein)
chain: NSQAGQQGLVEPTQFARANQAIQMACQSLGEPGCTQAQVLSAATIVAKHTSALCNSCRLASARTANPTAKRQFVQSAEEVANSTANLVKTIKALDGDFTEENRAQCRAATAPLLEAVDNLSAFASNPE
modifications: left off: GST, end not stated, kept
B2: 2E double mutant: GST-tagged talin R8 K1530E/K1544E double mutant (protein)
chain: B1 chain with K92E
modifications: left off: GST, end not stated, kept
B3: GFP-DLC1: GFP fusion of full-length DLC1 expressed from plasmid (protein)
chain: MCRKKPDTMILTQIEAKEACDWLRATGFPQYAQLYEDFLFPIDISLVKREHDFLDRDAIEALCRRLNTLNKCAVMKLEISPHRKRSDDSDEDEPCAISGKWTFQRDSKRWSRLEEFDVFSPKQDLVPGSPDDSHPKDGPSPGGTLMDLSERQEVSSVRSLSSTGSLPSHAPPSEDAATPRTNSVISVCSSSNLAGNDDSFGSLPSPKELSSFSFSMKGHEKTAKSKTRSLLKRMESLKLKSSHHSKHKAPSKLGLIISGPILQEGMDEEKLKQLNCVEISALNGNRINVPMVRKRSVSNSTQTSSSSSQSETSSAVSTPSPVTRTRSLSACNKRVGMYLEGFDPFNQSTFNNVVEQNFKNRESYPEDTVFYIPEDHKPGTFPKALTNGSFSPSGNNGSVNWRTGSFHGPGHISLRRENSSDSPKELKRRNSSSSMSSRLSIYDNVPGSILYSSSGDLADLENEDIFPELDDILYHVKGMQRIVNQWSEKFSDEGDSDSALDSVSPCPSSPKQIHLDVDNDRTTPSDLDSTGNSLNEPEEPSEIPERRDSGVGASLTRSNRHRLRWHSFQSSHRPSLNSVSLQINCQSVAQMNLLQKYSLLKLTALLEKYTPSNKHGFSWAVPKFMKRIKVPDYKDRSVFGVPLTVNVQRTGQPLPQSIQQAMRYLRNHCLDQVGLFRKSGVKSRIQALRQMNEGAIDCVNYEGQSAYDVADMLKQYFRDLPEPLMTNKLSETFLQIYQYVPKDQRLQAIKAAIMLLPDENREVLQTLLYFLSDVTAAVKENQMTPTNLAVCLAPSLFHLNTLKRENSSPRVMQRKQSLGKPDQKDLNENLAATQGLAHMIAECKKLFQVPEEMSRCRNSYTEQELKPLTLEALGHLGNDDSADYQHFLQDCVDGLFKEVKEKFKGWVSYSTSEQAELSYKKVSEGPPLRLWRSVIEVPAVPEEILKRLLKEQHLWDVDLLDSKVIEILDSQTEIYQYVQNSMAPHPARDYVVLRTWRTNLPKGACALLLTSVDHDRAPVVGVRVNVLLSRYLIEPCGPGKSKLTYMCRVDLRGHMPEWYTKSFGHLCAAEVVKIRDSFSNQNTETKDTKSR
modifications: left off: GFP, end not stated, kept
notes: GFP fusion of full-length DLC1 expressed from plasmid

Columns and labels:
Type in all cases: cell-based
GFP-DLC1 = assay: GST pull-down of GFP-DLC1 in HEK 293T cells; conditions: HEK 293T cells co-transfected with GFP-DLC1 and GST-tagged talin constructs, immunoblot
Method: We reported previously that wild-type talin R8 is sufficient to form a complex with full-length DLC1 in cells ([Li et al., 2011]). To evaluate the effects of the single K1530E and K1544E and double K1530E/K1544E (2E) R8 mutants on the complex formation in vivo, we engineered GST-tagged R8 constructs into isogenic mammalian expression plasmids and co-transfected them with GFP-DLC1 into HEK 293T cells. Complex formation was determined by a GST pull-down assay.
The plasmids expressing GFP-DLC1 and GST fusion proteins with talin rod fragments encoding talin amino acids 1,288–1,646 and 1,453–1,580 (R8) were described previously ([Li et al., 2011]). The plasmid encoding 1,352–1,580 (R7R8) was engineered by PCR and subcloned into a eukaryotic expression vector, PEBG. HEK293T cells were transfected by Lipofectamine 2000, and DLC1-null lung adenocarcinoma cell lines A549 and H358 cells were transfected by Lipofectamine 3000 according to the manufacturer’s instructions (Invitrogen). Cells were co-transfected with plasmids expressing GFP-DLC1 or Paxillin-DDK and GST, GST-talin fragments, or vector at a ratio of 1:2.5. Cells were incubated at 37°C in a humidified 5% CO2 atmosphere. In vivo pull-down assay, co-immunoprecipitation, immunoblotting, G418 colony growth, soft agar growth, and cell migration assays were described previously ([Qian et al., 2009]). All experiments were conducted in triplicate.
Figure S2, related to Figures 4 and 5. […]
R8 talin fragment were co-transfected with GFP-DLC1 into 293T cells. Cell extracts were subjected
(1 picture or pasted object on this page, not shown here) […]
to pull-down assay with glutathione beads followed by immunoblotting with anti-GST and anti-DLC1 on the same membrane (top). The transfected GFP-DLC1 in each sample is shown by the anti-DLC1 blot (bottom) as a loading control. […]
HEK 293T cells were transfected by lipofectamine 2000 and DLC1-null lung adenocarcinoma cell lines A549 and H358 cells were transfected by lipofectamine 3000 according to manufacturer instructions (Invitrogen). Cells were co-transfected with plasmids expressing GFP-DLC1 or Paxillin-DDK and GST, GST-talin fragments, or vector at a ratio of 1:2.5. Cells were incubated at 37 °C in a humidified 5% CO2 atmosphere.
In vivo pull-down assay, co-immunoprecipitation, and immunoblotting - As described previously (Qian et al., 2009), two days after transfection, cell extracts were collected using golden lysis buffer (GLB: 20 mM Tris pH 7.9, 137 mM NaCl, 10% glycerol, 1% Triton, 5 mM EDTA, 1 mM EGTA, 1 mM Na3VO4, 10 mM NaF, 1 mM sodium pyrophosphate, 0.5 mM β-glycerophosphate, and protease inhibitor cocktail tablet (Roche)). The cleared supernatants were collected, and the amount of protein estimated by BCA kit (Pierce). […]

[1] = tested on: A549 human non-small cell lung cancer line; assay: Growth in soft agar; conditions: transfected A549, 3 weeks; mean over three experiments
From the text: (§1) Figure 6 Talin R8 Mutations Disrupt the Interaction with DLC1 and Affect Its Biological Activity (A) Wild-type GST-talin fragments pull down more DLC1 than the 2E mutants. Extracts of HEK293T cells transfected with GFP-DLC1 and GST-talin constructs were subjected to pull-down assays with glutathione beads followed by immunoblotting with anti-GST and anti-DLC1 on the same membrane (top). The transfected GFP-DLC1 in each sample is shown by the anti-DLC1 blot (bottom) as a loading control. (B) Wild-type GST-talin fragments compete efficiently with endogenous talin to form a complex with DLC1. The supernatants collected after pull-down assay from (A) were reused for co-immunoprecipitation with an anti-talin antibody and blotted with anti-DLC1 (top). A small aliquot from each lane was blotted for endogenous talin as a loading control (bottom). (C) Co-expression of GST or GST-talin fragments (wild-type or 2E mutant) with GFP DLC1 in A549 cells. […] Transfected A549 cells were cultured in G418 for 3 weeks, and colonies counted and quantitated (top). […] Transfected A549 cells were grown for 3 weeks in soft agar, and colonies counted and quantitated (top). […] Lysates from migrated cells were quantitated (top), and representative microscopic images of the migrated cells are shown (bottom). […]

[2] = tested on: A549 human non-small cell lung cancer line; assay: Transwell cell migration assay; conditions: transfected A549, transwell, 24 h; mean over three experiments
From the text: as §1

[3] = tested on: A549 human non-small cell lung cancer line; assay: G418 (monolayer) colony growth assay; conditions: transfected A549, G418 for 3 weeks; mean over three experiments
From the text: as §1

Molecule	DLC1 binding in GST pull-down (GFP-DLC1)	DLC1 binding in GST pull-down (GFP-DLC1; listed as GST-talin R1530E)	DLC1 binding in GST pull-down (GFP-DLC1; listed as talin R8 K1530E/K1544E double mutant)	growth in soft agar [1]	cell migration [2]	colony growth [3]
B1	greater reduction in DLC1 binding than K1544E	binds DLC1 less well than the K1544E mutant	–	–	–	–
B2	reduced binding to a greater extent than either single mutant	–	markedly reduced binding	–	–	–
B3	–	–	–	inhibitory in all three assays	suppressed cell migration; also recorded: inhibitory in all three assays	suppressed colony formation; also recorded: inhibitory in all three assays

Source: PMC4938799, “LD Motif Recognition by Talin: Structure of the Talin-DLC1 Complex” (Structure(London, England:1993), 2016)
